Measurements reported in the supplement of paper PMC7877785.
± gives the uncertainty stated by the source.

Assay: self-splicing fitness, log relative to wild type (ln ratio); higher = more splicing; Tetrahymena group I intron in knt gene, E. coli kanamycin selection, DiMSum; sequences stand for … in CUCUCU…GGAGGGAAAAGUUAUCAGGCAUGCACCUGGUAGCUAGUCUUUAAACCAAUAGAUUGCAUCGGUUUAAAAGGCAAGACCGUCAAAUUGCGGGAAAGGGGUCAACAGCCGUUCAGUACCAAGUCUCAGGGGAAACUUUGAGAUGGCCUUGCAAAGGGUAUGGUAAUAAGCUGACGGACAUGGUCCUAACCACGCAGCCAAGUCCUAAGUCAACAGAUCUUCUGUUGAUAUGGAUGCAGUUCACAGACUAAAUGUCGGUCGGGGAAGAUGUAUUCUUCUCAUAAGAUAUAGUCGGACCUCUCCUUAAUGGGAGCUAGCGGAUGAAGUGAUGCAACACUGGAGCCGCUGGGAACUAAUUUGUAUGCGAAAGUAUAUUGAUUAGUUUUGGAGUACUCGUGGUCG
Method in brief: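 Pooled colonies went to amplicon sequencing on an Illumina HiSeq 2500 after six replicate transformations. The plates were LB agar with 100 μg/mL carbenicillin, 50 μM IPTG and 0.2% rhamnose, with or without 25 μg/mL kanamycin, incubated overnight at 37°C or 30°C. The E. coli BL21(DE3) library had all eight P1ex-region intron nucleotides randomised, the intron placed in the knt kanamycin-resistance gene on pET-22b(+). DiMSum fitness is the error-weighted combination of replicate fold changes, kanamycin against none, normalised to wild type.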

| Sequence | self-splicing fitness (ln) (30 °C) | self-splicing fitness (ln) (37 °C) |
| --- | --- | --- |
| CACUAGCAAUAUUACGGCCG | 0.0261 ± 0.086 | -0.0313 ± 0.12 |
| CACUAGCAAUAUUACGGGAC | -3.86 ± 0.21 | -1.7 ± 0.18 |
| CACUAGCAAUAUUACGGGGA | -2.57 ± 0.19 | -1.63 ± 0.17 |
| CACUAGCAAUAUUACGGGGC | -3.4 ± 0.17 | -2.23 ± 0.14 |
| CACUAGCAAUAUUACGUACU | -2.87 ± 0.16 | -2.81 ± 0.19 |
| CACUAGCAAUAUUACGUCAA | -3.77 ± 0.22 | -2.27 ± 0.14 |
| CACUAGCAAUAUUACGUCCG | -0.0671 ± 0.11 | 0.268 ± 0.13 |
| CACUAGCAAUAUUACGUGAU | -3.32 ± 0.12 | -3.21 ± 0.15 |
| CACUAGCAAUAUUACGUUCG | 0.203 ± 0.084 | 0.725 ± 0.11 |
| CACUAGCAAUAUUACGUUGU | -4.22 ± 0.14 | -2.08 ± 0.12 |
| CACUAGCAAUAUUACGUUUU | -2.97 ± 0.12 | -2.4 ± 0.13 |
| CAGAAGCAAUAUUACGAAGG | -1.23 ± 0.12 | -1.1 ± 0.16 |
| CAGAAGCAAUAUUACGACGC | -3 ± 0.14 | -1.28 ± 0.12 |
| CAGAAGCAAUAUUACGAGGA | -4.09 ± 0.4 | -2.01 ± 0.2 |
| CAGAAGCAAUAUUACGAGGU | -4.11 ± 0.36 | -3 ± 0.32 |
| CAGAAGCAAUAUUACGAUAG | -0.588 ± 0.075 | 0.256 ± 0.093 |
| CAGAAGCAAUAUUACGCAAG | -2.45 ± 0.098 | -1.21 ± 0.092 |
| CAGAAGCAAUAUUACGCCUA | -0.835 ± 0.12 | -0.744 ± 0.093 |
| CAGAAGCAAUAUUACGCGAA |  | -1.94 ± 0.23 |
| CAGAAGCAAUAUUACGCGUG | -4.79 ± 0.27 | -2.62 ± 0.12 |
| CAGAAGCAAUAUUACGCUAU | -3.4 ± 0.16 | -3.04 ± 0.16 |
| CAGAAGCAAUAUUACGGAUU | -3.13 ± 0.12 | -2.47 ± 0.14 |
| CAGAAGCAAUAUUACGGCGA | -1.43 ± 0.15 | -1.5 ± 0.18 |
| CAGAAGCAAUAUUACGGCGG | -0.0667 ± 0.084 | -0.292 ± 0.12 |
| CAGAAGCAAUAUUACGGGAG | -1.6 ± 0.12 | -0.856 ± 0.12 |

| Sequence | self-splicing fitness (ln) (30 °C) | self-splicing fitness (ln) (37 °C) |
| --- | --- | --- |
| CAGAAGCAAUAUUACGGGGA | -4.87 ± 0.36 | -1.61 ± 0.11 |
| CAGAAGCAAUAUUACGGGGU | -2.98 ± 0.19 | -2.34 ± 0.21 |
| CAGAAGCAAUAUUACGGUAG | -0.817 ± 0.065 | -0.323 ± 0.08 |
| CAGAAGCAAUAUUACGGUCC | -2.94 ± 0.33 |  |
| CAGAAGCAAUAUUACGUACG | -0.111 ± 0.089 | 0.665 ± 0.14 |
| CAGAAGCAAUAUUACGUAUC |  | -3.17 ± 0.24 |
| CAGAAGCAAUAUUACGUCAC | -3.02 ± 0.36 | -1.05 ± 0.25 |
| CAGAAGCAAUAUUACGUGCU | -2.7 ± 0.17 | -1.23 ± 0.14 |
| CAGAAGCAAUAUUACGUGGA | -2.71 ± 0.18 | -3.1 ± 0.2 |
| CAGAAGCAAUAUUACGUGUU | -4.1 ± 0.18 | -3.45 ± 0.16 |
| CAGAAGCAAUAUUACGUUAG | -0.919 ± 0.077 | -0.262 ± 0.097 |
| CAGCAGCAAUAUUACGAAAC | -3.65 ± 0.23 |  |
| CAGCAGCAAUAUUACGACCU | -2.57 ± 0.14 | -1.57 ± 0.12 |
| CAGCAGCAAUAUUACGAGCA | -2.5 ± 0.12 | -1.04 ± 0.093 |
| CAGCAGCAAUAUUACGAUCC | -2.11 ± 0.22 | -2.73 ± 0.4 |
| CAGCAGCAAUAUUACGAUGA | -2.7 ± 0.21 | -1.31 ± 0.14 |
| CAGCAGCAAUAUUACGAUUC | -3.27 ± 0.25 | -1.78 ± 0.16 |
| CAGCAGCAAUAUUACGCACC | -2.66 ± 0.29 | -1.32 ± 0.47 |
| CAGCAGCAAUAUUACGCAGA | -2.32 ± 0.28 | -1.19 ± 0.13 |
| CAGCAGCAAUAUUACGCAGU | -3.81 ± 0.18 | -3.35 ± 0.22 |
| CAGCAGCAAUAUUACGCAUG | -3.11 ± 0.16 | -2.42 ± 0.16 |
| CAGCAGCAAUAUUACGCCAA | -3.43 ± 0.32 | -1.87 ± 0.17 |
| CAGCAGCAAUAUUACGCCGU | -2.74 ± 0.22 | -2.41 ± 0.28 |
| CAGCAGCAAUAUUACGCUAG | -2.8 ± 0.16 | -2.1 ± 0.21 |
| CAGCAGCAAUAUUACGGAAG | -0.307 ± 0.054 | -0.29 ± 0.068 |

| Sequence | self-splicing fitness (ln) (30 °C) | self-splicing fitness (ln) (37 °C) |
| --- | --- | --- |
| CAGCAGCAAUAUUACGGAGA | -3.3 ± 0.31 | -3.02 ± 0.22 |
| CAGCAGCAAUAUUACGGAUA | -3.18 ± 0.24 | -2.41 ± 0.17 |
| CAGCAGCAAUAUUACGGGAG | -1.2 ± 0.061 | -0.908 ± 0.082 |
| CAGCAGCAAUAUUACGGUAG | -0.155 ± 0.087 | 0.0584 ± 0.11 |
| CAGCAGCAAUAUUACGGUUC | -2.92 ± 0.26 | -1.5 ± 0.17 |
| CAGCAGCAAUAUUACGUAUG | -2.19 ± 0.1 | -2.5 ± 0.15 |
| CAGCAGCAAUAUUACGUCAA | -2.85 ± 0.21 | -3.37 ± 0.3 |
| CAGCAGCAAUAUUACGUUGG | -1.91 ± 0.072 | -0.788 ± 0.084 |
| CAGGAGCAAUAUUACGACCA |  | -1.27 ± 0.31 |
| CAGGAGCAAUAUUACGAGAU | -3.82 ± 0.29 | -3.8 ± 0.39 |
| CAGGAGCAAUAUUACGAGCU | -3.44 ± 0.47 | -2.52 ± 0.41 |
| CAGGAGCAAUAUUACGAGGA | -3.55 ± 0.25 | -3.69 ± 0.29 |
| CAGGAGCAAUAUUACGAGUA |  | -2.34 ± 0.42 |
| CAGGAGCAAUAUUACGAGUU | -3.36 ± 0.43 |  |
| CAGGAGCAAUAUUACGAUGA | -1.76 ± 0.41 |  |
| CAGGAGCAAUAUUACGAUUC |  | -1.93 ± 0.38 |
| CAGGAGCAAUAUUACGCUGA | -4.15 ± 0.23 | -3.13 ± 0.2 |
| CAGGAGCAAUAUUACGGGAU | -3.55 ± 0.22 | -2.28 ± 0.23 |
| CAGGAGCAAUAUUACGGGCC | -3.76 ± 0.42 |  |
| CAGGAGCAAUAUUACGGGGG | -2.9 ± 0.19 | -2.4 ± 0.25 |
| CAGGAGCAAUAUUACGGUCG | 0.425 ± 0.084 | 0.544 ± 0.12 |
| CAGGAGCAAUAUUACGGUGA | -2.96 ± 0.22 | -3 ± 0.27 |
| CAGGAGCAAUAUUACGGUUC | -2.71 ± 0.43 | -1.74 ± 0.28 |
| CAGGAGCAAUAUUACGUACU |  | -2.97 ± 0.38 |
| CAGGAGCAAUAUUACGUCAU |  | -1.89 ± 0.33 |

| Sequence | self-splicing fitness (ln) (30 °C) | self-splicing fitness (ln) (37 °C) |
| --- | --- | --- |
| CAGGAGCAAUAUUACGUCUU | -2.33 ± 0.095 | -2.16 ± 0.11 |
| CAGGAGCAAUAUUACGUGCG | -1.56 ± 0.079 | -0.807 ± 0.088 |
| CAGGAGCAAUAUUACGUGGA | -3.47 ± 0.2 | -3.3 ± 0.26 |
| CAGGAGCAAUAUUACGUGGU | -4.08 ± 0.23 | -3.15 ± 0.23 |
| CAGGAGCAAUAUUACGUUAC | -2.43 ± 0.13 | -3.01 ± 0.21 |
| CAGGAGCAAUAUUACGUUAU | -3.4 ± 0.29 | -2.71 ± 0.3 |
| CAGGAGCAAUAUUACGUUCC | -3.33 ± 0.23 | -2.04 ± 0.27 |
| CAGUAGCAAUAUUACGACCC | -3.52 ± 0.44 | -0.507 ± 0.34 |
| CAGUAGCAAUAUUACGAGGU |  | -2.88 ± 0.34 |
| CAGUAGCAAUAUUACGCACG | -1.27 ± 0.11 | -0.303 ± 0.17 |
| CAGUAGCAAUAUUACGCCCA | -2.16 ± 0.26 | -0.476 ± 0.45 |
| CAGUAGCAAUAUUACGCCCG | 0.504 ± 0.12 | -0.351 ± 0.15 |
| CAGUAGCAAUAUUACGCCUC | -2.93 ± 0.46 | -2.4 ± 0.44 |
| CAGUAGCAAUAUUACGCUCA | -0.118 ± 0.13 | 0.5 ± 0.17 |
| CAGUAGCAAUAUUACGCUCU | -2.44 ± 0.18 | -0.957 ± 0.15 |
| CAGUAGCAAUAUUACGGCGC | -1.59 ± 0.4 | -0.863 ± 0.25 |
| CAGUAGCAAUAUUACGGCUC | -1.36 ± 0.14 | 0.325 ± 0.16 |
| CAGUAGCAAUAUUACGGGGU | -4.35 ± 0.32 | -2.1 ± 0.22 |
| CAGUAGCAAUAUUACGGGUA | -3.45 ± 0.4 | -1.01 ± 0.18 |
| CAGUAGCAAUAUUACGUAGC | -3.32 ± 0.12 | -3.18 ± 0.17 |
| CAGUAGCAAUAUUACGUCUA | -0.56 ± 0.064 | -0.256 ± 0.071 |
| CAGUAGCAAUAUUACGUCUC | -3.93 ± 0.37 | -2.13 ± 0.27 |
| CAGUAGCAAUAUUACGUUAC | -3.34 ± 0.47 | -2.76 ± 0.3 |
| CAGUAGCAAUAUUACGUUCA | -0.986 ± 0.14 | -2.31 ± 0.23 |
